Laboratory results from US20120219547A1 (LIVZON MABPHARM, published 2012).
Blank lines part the entries; values can stand above or below the binder they belong to.

Tests used:
[1] = target: T1, recombinant human tumor necrosis factor-α (human, UniProt P01375 77-233); experiment: cell-based or functional assay
[2] = target: T1, recombinant human tumor necrosis …; experiment: competition ELISA, rhTNF coated on plate, competitor HRP-labeled humira; given in µg/mL
Protocol: The anti-hTNFα human antibody humira marked with horseradish peroxidase (HRP) was used as a reagent. Elisa plates were coated with rhTNF (50 μl of […]), and left overnight at room temperature. The coating solution was discarded, and each well was blocked with 1% skim milk in phosphate buffered saline (PBS) for about 0.5 hours, and washed with PBS containing 0.05% Tween 20. And then a mixture of 50 μl of growth medium and 50 μl of HRP labeled humira was added to each well. Unlabeled humira and antibody-free medium were used as positive and negative controls. […] The wells in which the binding of HRP-labeled humira and rhTNFα was inhibited Kong were amplified and subcloned, followed by analysis of several mouse monoclonal antibodies which show the inhibition effects, and finally hybridoma cells were screened out. The hybridoma cells were intermediate cultured, and the supernatant was taken for purification, and the mouse monoclonal antibody TM2-11-12 and TM2-6-3. The purified mouse monoclonal antibodies TM2-11-12 and TM2-6-3 were tested in competition binding assays. Even at the concentration up to 1 μg/mL, the mouse antibody TM2-6-3 only competed out about 50% of the binding of humira to hTNFα.

[3] = target: T2, mouse TNFα (mouse, UniProt P06804 80-235); experiment: ELISA, TNFα coated on plate, HRP-labeled anti-human Fc detection
T2 sequence (looked up): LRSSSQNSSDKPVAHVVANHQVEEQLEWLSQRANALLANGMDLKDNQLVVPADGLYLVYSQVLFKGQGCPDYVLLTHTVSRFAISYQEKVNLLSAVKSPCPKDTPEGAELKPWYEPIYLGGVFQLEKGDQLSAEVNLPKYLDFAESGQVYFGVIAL
Protocol: (§1) On a plate, respectively coat recombinant human TNFα 5 ng/well, mouse TNFα 25 ng/well, and monkey TNFα 5 ng/well at room temperature, and blocked for 1 h, washed. And then 1.8-fold gradient dilutions of AT132 was added with an initial concentration of 250 ng/mL, and incubated at 25° C. for 2 h, washed, HRP-labeled anti-human Fc antibody added, and incubated at room temperature for 1 h, washed, and the substrate solution added as 100 μl/well, placed in dark at 37° C. for 30 min. In accordance with the order of the added color reagents, 0.2 M H₂SO₄, 50 μl/well was added to terminate the reaction. Within about 5 minutes after termination, OD values were test at 450 nm/630 nm on a microplate reader, and median effective concentrations were obtained by four-parameter fitting. Compare the binding activities of AT132 to different sources of TNFα.

[4] = target: T1, recombinant human tumor necrosis …; experiment: SPR, Biacore X100; antibody captured by goat anti-human IgG Fc on CM5 chip, TNFα as analyte
Protocol: AT132 affinity was determined by Biacore X100, and analyzed with Biacore X100 kinetics/affinity analysis software. Using indirect capture method, goat anti-human IgG Fc polyclonal antibody was coupled to the surface of CM5 chip as a capture molecule by using Amine Coupling Kit. By calculation, AT132 and Humira as control were respectively diluted to a a certain concentration to be lately used as ligand, and TNFα as the analyte. Analytes were diluted to 5 concentrations, and each concentration as a cycle. First, using HBS-EP buffer to run for three cycles, designing an analyte concentration of 0 concentration to run for two cycles, and finally, designing a repeat analyte concentration to run for a cycle. The whole process ran 11 cycles, and each cycle can draw a curve. The dynamics/affinity data of the measured antibody and humira were analyzed by Biacore X100 kinetics/affinity analysis software.

[5] = target: monkey TNFα (monkey); experiment: ELISA, TNFα coated on plate (5 ng/well), HRP-labeled anti-human Fc detection, four-parameter fit
Protocol: as §1

[6] = target: T2, mouse TNFα; experiment: ELISA, TNFα coated on plate (mouse 25 ng/well, human 5 ng/well), HRP-labeled anti-human Fc detection; calculated from coating and sample concentrations
Protocol: as §1

T1 sequence (P01375 77-233 limits assumed): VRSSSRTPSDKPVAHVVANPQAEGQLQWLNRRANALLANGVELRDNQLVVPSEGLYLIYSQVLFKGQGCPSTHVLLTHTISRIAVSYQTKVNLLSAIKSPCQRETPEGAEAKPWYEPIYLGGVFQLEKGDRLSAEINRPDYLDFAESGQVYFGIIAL

B1: AT135 humanized anti-TNFα antibody (antibody, human IgG1, V domains shown)
VH: QVQLVQSGPELKKPGASVKISCKASGYTFTHYGMHWVKQTPGRGLKWVGWINTYTGEPTYDADFQGRFTFSLDTSVSTAFLQINSLKDEDLAVYFCARYDFDGFDYWGQGTTLTVSS
VL: ENVLTQSPPILSASPGERVTMTCRASSSITFNYLHWYQQKSGDSPKVWIYSTSNLVSGVPSRFSGSGSGTSYSLTISSLEAEDAATYYCQQYSDYPYTFGGGTKLEIK
EC50(ng/mL), neutralization of TNFα killing effect on L929 cell [1]: 50 ng/mL

B2: mouse monoclonal antibody TM2-11-12 (antibody, mouse IgG1, V domains shown)
VH: QVQLVQSGPELKKPGETVKISCKASGYTFTHYGMHWVKQTPGRSLKWVGWINTYTGEPTYDADFQGRFTFSLETSTSTAFLQINTLKDEDLATYFCARYDFDGFDYWGQGTTLTVSS
VL: ENVLTQSPPIMSASPGEEVTMTCRASSSITFNYLHWYQQKSGDSPKVWIYSTSNLVSGVPARFSGSGSGTSYSLTISSVEAEDAATYYCQQYSDYPYTFGGGTKLEIK
notes: Purified from hybridoma supernatant; The cloning primers are antisense to the mouse IgG1 heavy chain and mouse kappa light chain constant regions; also called anti-hTNFα mouse antibody TM2-11-12
IC50 [2]: ~0.05 µg/mL

B3: AT151 humanized anti-TNFα antibody (antibody, human IgG1, V domains shown)
VH: QVQLVQSGPELKKPGASVKISCKASGYTFTHYGMHWVKQTPGRGLKWVGWINTYTGEPTYDADFQGRFTFSLETSVSTAFLQINSLKDEDLATYFCARYDFDGFDYWGQGTTLTVSS
VL: ENVLTQSPPILSASPGEEVTMTCRASSSITFNYLHWYQQKSGDSPKVWIYSTSNLVSGVPARFSGSGSGTSYSLTISSLEAEDFATYYCQQYSDYPYTFGGGTKLEIK
EC50(ng/mL), neutralization of TNFα killing effect on L929 cell [1]: 42.1 ng/mL

B4: AT143 humanized anti-TNFα antibody (antibody, human IgG1, V domains shown)
VH: QVQLVQSGPELKKPGESVKISCKASGYTFTHYGMHWVKQTPGRGLKWVGWINTYTGEPTYDADFQGRFTFSLETSTSTAYLQINSLKDEDLATYFCARYDFDGFDYWGQGTTLTVSS
VL: ENVLTQSPPIMSASPGERVTMTCRASSSITFNYLHWYQQKSGDSPKVLIYSTSNLVSGVPSRFSGSGSGTSYSLTISSVEAEDAATYYCQQYSDYPYTFGGGTKLEIK
EC50(ng/mL), neutralization of TNFα killing effect on L929 cell [1]: 39.8 ng/mL

B5: AT164 humanized anti-TNFα antibody (antibody, human IgG1, V domains shown)
VH: QVQLVQSGPELKKPGASVKISCKASGYTFTHYGMHWVKQTPGRGLKWVGWINTYTGEPTYDADFQGRFTFSLDTSVSTAFLQINSLKDEDLAVYFCARYDFDGFDYWGQGTTLTVSS
VL: ENVLTQSPPIMSASPGERVTMTCRASSSITFNYLHWYQQKSGDSPKVLIYSTSNLVSGVPSRFSGSGSGTSYSLTISSVEAEDAATYYCQQYSDYPYTFGGGTKLEIK
EC50(ng/mL), neutralization of TNFα killing effect on L929 cell [1]: 45.5 ng/mL

binding result [3]: no binding | binding activity relative to human TNFα [5]: ~50% | fold lower binding activity than to human TNFα [6]: 1000 times lower
B6: AT132 humanized anti-TNFα monoclonal antibody (antibody, human IgG1, V domains shown)
VH: QVQLVQSGPELKKPGASVKISCKASGYTFTHYGMHWVKQTPGRGLKWVGWINTYTGEPTYDADFQGRFTFSLETSVSTAFLQINSLKDEDLATYFCARYDFDGFDYWGQGTTLTVSS
VL: ENVLTQSPPILSASPGERVTMTCRASSSITFNYLHWYQQKSGDSPKVWIYSTSNLVSGVPSRFSGSGSGTSYSLTISSLEAEDAATYYCQQYSDYPYTFGGGTKLEIK
notes: also called E001VH/F001VL
EC50(ng/mL), neutralization of TNFα killing effect on L929 cell [1]: 20.4 ng/mL | Ka [4]: 8.4e+10 M⁻¹ | Kd [4]: 0.0119 nM
